Here are results for 18 molecules from PMC9352680, “A comprehensive thermodynamic model for RNA binding by the Saccharomyces cerevisiae Pumilio protein PUF4”.

Broadly, the Kd is the free concentration of one partner at which half of the binding sites on the other are occupied at equilibrium, for simple one-to-one binding. Read a low Kd as tighter binding.

To fix the notation:
B1: Id_ii_S2_P3E.3_K3.2_C3.2_[C-2G]_H3.2_A3.1_F3.1_T3.2_[A10T] (ssRNA)
RNA: UUUGAUUAAUAUGAUAUCGUUCUUUCUGUUAUAUAUAUUUUCUUUCUCGAUAUCAUAUUAAUCUUU
B2: Id_ii_S2_P3E.3_K3.2_C3.2_[C-2T]_[T-1C]_H3.2_A3.1_F3.1_T3.2_[T9G]_[A10C] (ssRNA)
RNA: UUUGAUUAAUAUGAUAUCGUUCUUUCUUCUAUAUAUAGCUUCUUUCUCGAUAUCAUAUUAAUCUUU
B3: Id_ii_S2_P3E.3_K3.2_C3.2_[C-2T]_[T-1G]_H3.2_A3.1_F3.1_T3.2_[A10T] (ssRNA)
RNA: UUUGAUUAAUAUGAUAUCGUUCUUUCUUGUAUAUAUAUUUUCUUUCUCGAUAUCAUAUUAAUCUUU
B4: Id_ii_S2_P3E.3_K3.2_C3.2_[C-2T]_[T-1A]_H3.2_A3.1_F3.1_T3.2_[T9C]_[A10C] (ssRNA)
RNA: UUUGAUUAAUAUGAUAUCGUUCUUUCUUAUAUAUAUACCUUCUUUCUCGAUAUCAUAUUAAUCUUU
B5: Id_ii_S2_P3E.3_K3.2_C3.2_[C-2T]_[T-1C]_H3.2_A3.1_F3.1_T3.2_[T9C] (ssRNA)
RNA: UUUGAUUAAUAUGAUAUCGUUCUUUCUUCUAUAUAUACAUUCUUUCUCGAUAUCAUAUUAAUCUUU
B6: Id_ii_S2_P3E.3_K3.2_C3.2_[C-2T]_[T-1C]_H3.2_A3.1_F3.1_T3.2_[A10T] (ssRNA)
RNA: UUUGAUUAAUAUGAUAUCGUUCUUUCUUCUAUAUAUAUUUUCUUUCUCGAUAUCAUAUUAAUCUUU
B7: Id_ii_S2_P3E.3_K3.2_C3.2_[C-2T]_[T-1C]_H3.2_A3.1_F3.1_T3.2_[T9C]_[A10G] (ssRNA)
RNA: UUUGAUUAAUAUGAUAUCGUUCUUUCUUCUAUAUAUACGUUCUUUCUCGAUAUCAUAUUAAUCUUU
B8: Id_ii_S2_P3E.3_K3.2_C3.2_[C-2T]_[T-1G]_H3.2_A3.1_F3.1_T3.2_[A10G] (ssRNA)
RNA: UUUGAUUAAUAUGAUAUCGUUCUUUCUUGUAUAUAUAUGUUCUUUCUCGAUAUCAUAUUAAUCUUU
B9: Id_ii_S2_P3E.3_K3.2_C3.2_[C-2T]_[T-1G]_H3.2_A3.1_F3.1_T3.2_[T9A] (ssRNA)
RNA: UUUGAUUAAUAUGAUAUCGUUCUUUCUUGUAUAUAUAAAUUCUUUCUCGAUAUCAUAUUAAUCUUU
B10: Id_ii_S2_P3E.3_K3.2_C3.2_[C-2T]_[T-1C]_H3.2_A3.1_F3.1_T3.2_[T9A]_[A10T] (ssRNA)
RNA: UUUGAUUAAUAUGAUAUCGUUCUUUCUUCUAUAUAUAAUUUCUUUCUCGAUAUCAUAUUAAUCUUU
B11: Id_ii_S2_P3E.3_K3.2_C3.2_[C-2T]_[T-1C]_H3.2_A3.1_F3.1_T3.2_[T9G]_[A10T] (ssRNA)
RNA: UUUGAUUAAUAUGAUAUCGUUCUUUCUUCUAUAUAUAGUUUCUUUCUCGAUAUCAUAUUAAUCUUU
B12: Id_ii_S2_P3E.3_K3.2_C3.2_[C-2T]_[T-1G]_H3.2_A3.1_F3.1_T3.2_[T9G]_[A10C] (ssRNA)
RNA: UUUGAUUAAUAUGAUAUCGUUCUUUCUUGUAUAUAUAGCUUCUUUCUCGAUAUCAUAUUAAUCUUU
B13: Id_ii_S2_P3E.3_K3.2_C3.2_[C-2T]_[T-1C]_H3.2_A3.1_F3.1_T3.2_[T9C]_[A10T] (ssRNA)
RNA: UUUGAUUAAUAUGAUAUCGUUCUUUCUUCUAUAUAUACUUUCUUUCUCGAUAUCAUAUUAAUCUUU
B14: Id_ii_S2_P3E.3_K3.2_C3.2_[C-2T]_[T-1G]_H3.2_A3.1_F3.1_T3.2_[A10C] (ssRNA)
RNA: UUUGAUUAAUAUGAUAUCGUUCUUUCUUGUAUAUAUAUCUUCUUUCUCGAUAUCAUAUUAAUCUUU
B15: Id_ii_S2_P3E.3_K3.2_C3.2_[C-2T]_[T-1G]_H3.2_A3.1_F3.1_T3.2_[T9G]_[A10T] (ssRNA)
RNA: UUUGAUUAAUAUGAUAUCGUUCUUUCUUGUAUAUAUAGUUUCUUUCUCGAUAUCAUAUUAAUCUUU
B16: Id_ii_S2_P3E.3_K3.2_C3.2_[C-2T]_[T-1C]_H3.2_A3.1_F3.1_T3.2_[T9C]_[A10C] (ssRNA)
RNA: UUUGAUUAAUAUGAUAUCGUUCUUUCUUCUAUAUAUACCUUCUUUCUCGAUAUCAUAUUAAUCUUU
B17: Id_ii_S2_P3E.3_K3.2_C3.2_[C-2T]_[T-1G]_H3.2_A3.1_F3.1_T3.2_[T9A]_[A10T] (ssRNA)
RNA: UUUGAUUAAUAUGAUAUCGUUCUUUCUUGUAUAUAUAAUUUCUUUCUCGAUAUCAUAUUAAUCUUU

For this data set, the target named is T1, PUF4 RNA-binding domain (Saccharomyces cerevisiae, UniProt P25339 537-888).
T1 sequence: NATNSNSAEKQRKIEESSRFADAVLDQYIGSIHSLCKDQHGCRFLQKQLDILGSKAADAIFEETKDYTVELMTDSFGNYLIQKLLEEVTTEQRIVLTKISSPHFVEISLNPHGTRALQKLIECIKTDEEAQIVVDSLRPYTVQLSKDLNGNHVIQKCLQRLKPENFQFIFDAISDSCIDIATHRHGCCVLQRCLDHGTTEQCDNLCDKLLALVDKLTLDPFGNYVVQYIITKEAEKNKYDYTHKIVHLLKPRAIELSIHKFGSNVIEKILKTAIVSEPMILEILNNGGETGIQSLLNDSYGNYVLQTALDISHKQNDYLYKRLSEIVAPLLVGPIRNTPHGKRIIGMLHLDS
The experiment in a line: Mg; RNA-MaP; 20 mM Na-HEPES pH 7.4, 30 mM KOAc, 0.75 mM MgCl2, 0.1% Tween-20, 5% glycerol, 0.1 mg/mL BSA, 2 mM DTT; 25 C; 0.0125-409.6 nM protein. To be noted: tags: N-His6-TEV cleaved; C-SNAP kept, Cy3B-labelled; label: tethered on chip by stalled RNA polymerase.
The molecule UCUCUUUGUUUUACUAUCUCUU (ssRNA) [Ib_S1_P5E.1_K5.1_C5.1_H5.1_[A4T]_A5.1_F5.1_[T8C]_T5.1] yielded a Kd of 59.6 nM.

Molecule B1 returned a Kd of 9.18 nM.

On to B2, for which the Kd is 393 nM.

With B3, the Kd was found to be 1.25 nM. Compared with the last molecule, the Kd is about 310-fold lower.

Regarding B4, the dissociation constant Kd amounted to 63.8 nM.

B5: binding was put at a Kd of 175 nM.

Take B6: the Kd came out at 68.1 nM.

B7 registered a Kd of 536 nM.

For B8, the affinity, expressed as Kd, was 1.52 nM.

B9 registered a Kd of 2.25 nM.

B10: the dissociation constant Kd amounted to 147 nM.

Regarding B11, the affinity, expressed as Kd, was 1030 nM.

B12: the equilibrium dissociation constant (Kd) amounted to 2.63 nM.

For the molecule B13, binding was put at a Kd of 88 nM.

B14 came in with a Kd of 1.72 nM.

Molecule B15 came in with a Kd of 3.83 nM.

Regarding B16, the dissociation constant Kd is 228 nM.

In the case of B17, binding was put at a Kd of 1.67 nM. Against the preceding molecule, the Kd is about 140-fold lower.
